Measured values as given in patent US20220145291A1.

Biological target: FasR on T-cells (Jurkat cells) (UniProt P25445)
Assay: cell-based or functional assay

FasR on T-cells (Jurkat cells), sequence (P25445 26-335 limits assumed): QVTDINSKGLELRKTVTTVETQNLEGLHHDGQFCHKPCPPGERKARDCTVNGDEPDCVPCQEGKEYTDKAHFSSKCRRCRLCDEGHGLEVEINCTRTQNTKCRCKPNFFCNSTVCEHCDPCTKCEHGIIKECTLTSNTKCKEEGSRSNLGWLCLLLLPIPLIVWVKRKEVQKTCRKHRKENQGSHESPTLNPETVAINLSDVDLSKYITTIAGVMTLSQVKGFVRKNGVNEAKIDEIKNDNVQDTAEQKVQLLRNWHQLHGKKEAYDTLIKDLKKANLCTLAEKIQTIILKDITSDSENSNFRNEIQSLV
streptavidin-FasL, sequence (P22629 37-163): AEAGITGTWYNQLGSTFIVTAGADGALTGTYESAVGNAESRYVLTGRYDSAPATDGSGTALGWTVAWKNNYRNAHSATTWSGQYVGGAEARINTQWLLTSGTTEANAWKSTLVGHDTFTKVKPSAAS

Substance: streptavidin-FasL (from UniProt P22629 37-163) (ligand)
- apoptosis in Jurkat cells, flow cytometry (Annexin V); SA-FasL tethered on exosomes, 1 µg exosome protein: 17.5%
- apoptosis in Jurkat cells, flow cytometry (Annexin V); SA-FasL tethered on exosomes, 20 µg exosome protein: 99.3%
